B1: TBC1 domain family member 22B (Homo sapiens), Q9NU19 (parent)
chain: MAAENSKQFWKRSAKLPGSIQPVYGAQHPPLDPRLTKNFIKERSKVNTVPLKNKKASSFHEFARNTSDAWDIGDDEEEDFSSPSFQTLNSKVALATAAQVLENHSKLRVKPERSQSTTSDVPANYKVIKSSSDAQLSRNSSDTCLRNPLHKQQSLPLRPIIPLVARISDQNASGAPPMTVREKTRLEKFRQLLSSQNTDLDELRKCSWPGVPREVRPITWRLLSGYLPANTERRKLTLQRKREEYFGFIEQYYDSRNEEHHQDTYRQIHIDIPRTNPLIPLFQQPLVQEIFERILFIWAIRHPASGYVQGINDLVTPFFVVFLSEYVEEDVENFDVTNLSQDMLRSIEADSFWCMSKLLDGIQDNYTFAQPGIQKKVKALEELVSRIDEQVHNHFRRYEVEYLQFAFRWMNNLLMRELPLRCTIRLWDTYQSEPEGFSHFHLYVCAAFLIKWRKEILDEEDFQGLLMLLQNLPTIHWGNEEIGLLLAEAYRLKYMFADAPNHYRR
partner: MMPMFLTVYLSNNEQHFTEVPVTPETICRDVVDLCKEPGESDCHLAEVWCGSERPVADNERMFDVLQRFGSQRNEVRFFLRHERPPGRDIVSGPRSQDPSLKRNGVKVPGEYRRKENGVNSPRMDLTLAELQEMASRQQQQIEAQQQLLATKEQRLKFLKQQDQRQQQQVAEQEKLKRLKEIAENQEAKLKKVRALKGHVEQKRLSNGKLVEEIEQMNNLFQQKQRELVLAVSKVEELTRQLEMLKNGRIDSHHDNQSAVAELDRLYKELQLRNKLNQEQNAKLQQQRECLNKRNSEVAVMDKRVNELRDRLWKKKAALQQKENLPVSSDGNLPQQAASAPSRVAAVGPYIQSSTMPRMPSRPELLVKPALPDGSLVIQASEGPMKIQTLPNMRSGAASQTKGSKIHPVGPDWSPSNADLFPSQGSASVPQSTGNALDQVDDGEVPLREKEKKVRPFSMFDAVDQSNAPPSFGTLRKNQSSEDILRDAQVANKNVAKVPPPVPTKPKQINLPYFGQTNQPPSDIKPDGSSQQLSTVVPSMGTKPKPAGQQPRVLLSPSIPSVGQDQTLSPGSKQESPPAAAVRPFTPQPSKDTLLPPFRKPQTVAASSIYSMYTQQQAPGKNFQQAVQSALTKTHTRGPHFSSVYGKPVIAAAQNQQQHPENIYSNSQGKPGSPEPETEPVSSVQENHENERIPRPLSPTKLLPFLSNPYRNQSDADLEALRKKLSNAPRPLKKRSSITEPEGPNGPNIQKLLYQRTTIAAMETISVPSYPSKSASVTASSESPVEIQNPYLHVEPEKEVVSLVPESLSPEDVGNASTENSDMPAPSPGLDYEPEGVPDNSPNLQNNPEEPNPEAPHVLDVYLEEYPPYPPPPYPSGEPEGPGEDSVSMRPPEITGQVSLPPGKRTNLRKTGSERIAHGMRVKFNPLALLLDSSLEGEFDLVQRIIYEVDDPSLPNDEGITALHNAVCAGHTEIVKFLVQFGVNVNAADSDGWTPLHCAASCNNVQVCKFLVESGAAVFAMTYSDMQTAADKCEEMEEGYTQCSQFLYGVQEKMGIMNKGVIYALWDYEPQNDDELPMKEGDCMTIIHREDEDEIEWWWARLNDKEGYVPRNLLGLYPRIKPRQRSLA
B2: Coiled-coil alpha-helical rod protein 1 (Homo sapiens), Q8TD31 (parent)
chain: MFPPSGSTGLIPPSHFQARPLSTLPRMAPTWLSDIPLVQPPGHQDVSERRLDTQRPQVTMWERDVSSDRQEPGRRGRSWGLEGSQALSQQAEVIVRQLQELRRLEEEVRLLRETSLQQKMRLEAQAMELEALARAEKAGRAEAEGLRAALAGAEVVRKNLEEGSQRELEEVQRLHQEQLSSLTQAHEEALSSLTSKAEGLEKSLSSLETRRAGEAKELAEAQREAELLRKQLSKTQEDLEAQVTLVENLRKYVGEQVPSEVHSQTWELERQKLLETMQHLQEDRDSLHATAELLQVRVQSLTHILALQEEELTRKVQPSDSLEPEFTRKCQSLLNRWREKVFALMVQLKAQELEHSDSVKQLKGQVASLQEKVTSQSQEQAILQRSLQDKAAEVEVERMGAKGLQLELSRAQEARRRWQQQTASAEEQLRLVVNAVSSSQIWLETTMAKVEGAAAQLPSLNNRLSYAVRKVHTIRGLIARKLALAQLRQESCPLPPPVTDVSLELQQLREERNRLDAELQLSARLIQQEVGRAREQGEAERQQLSKVAQQLEQELQQTQESLASLGLQLEVARQGQQESTEEAASLRQELTQQQELYGQALQEKVAEVETRLREQLSDTERRLNEARREHAKAVVSLRQIQRRAAQEKERSQELRRLQEEARKEEGQRLARRLQELERDKNLMLATLQQEGLLSRYKQQRLLTVLPSLLDKKKSVVSSPRPPECSASAPVAAAVPTRESIKGSLSVLLDDLQDLSEAISKEEAVCQGDNLDRCSSSNPQMSS
partner: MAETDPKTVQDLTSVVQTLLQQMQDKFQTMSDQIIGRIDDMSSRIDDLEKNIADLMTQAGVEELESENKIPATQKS
B3: Coiled-coil alpha-helical rod protein 1 (Homo sapiens), Q8TD31 (parent)
chain: B2 chain
partner: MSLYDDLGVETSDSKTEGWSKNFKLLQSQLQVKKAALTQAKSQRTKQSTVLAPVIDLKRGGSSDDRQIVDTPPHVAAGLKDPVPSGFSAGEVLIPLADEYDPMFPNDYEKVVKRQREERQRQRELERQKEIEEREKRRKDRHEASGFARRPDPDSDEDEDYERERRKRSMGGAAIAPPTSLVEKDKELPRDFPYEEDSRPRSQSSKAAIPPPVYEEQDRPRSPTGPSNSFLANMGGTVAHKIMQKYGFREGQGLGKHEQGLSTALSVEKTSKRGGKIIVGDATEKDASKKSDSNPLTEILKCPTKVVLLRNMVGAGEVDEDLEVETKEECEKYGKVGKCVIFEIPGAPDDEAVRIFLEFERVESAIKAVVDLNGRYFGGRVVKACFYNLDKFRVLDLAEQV
B4: TBC1 domain family member 22B (Homo sapiens), Q9NU19 (parent)
chain: B1 chain
partner: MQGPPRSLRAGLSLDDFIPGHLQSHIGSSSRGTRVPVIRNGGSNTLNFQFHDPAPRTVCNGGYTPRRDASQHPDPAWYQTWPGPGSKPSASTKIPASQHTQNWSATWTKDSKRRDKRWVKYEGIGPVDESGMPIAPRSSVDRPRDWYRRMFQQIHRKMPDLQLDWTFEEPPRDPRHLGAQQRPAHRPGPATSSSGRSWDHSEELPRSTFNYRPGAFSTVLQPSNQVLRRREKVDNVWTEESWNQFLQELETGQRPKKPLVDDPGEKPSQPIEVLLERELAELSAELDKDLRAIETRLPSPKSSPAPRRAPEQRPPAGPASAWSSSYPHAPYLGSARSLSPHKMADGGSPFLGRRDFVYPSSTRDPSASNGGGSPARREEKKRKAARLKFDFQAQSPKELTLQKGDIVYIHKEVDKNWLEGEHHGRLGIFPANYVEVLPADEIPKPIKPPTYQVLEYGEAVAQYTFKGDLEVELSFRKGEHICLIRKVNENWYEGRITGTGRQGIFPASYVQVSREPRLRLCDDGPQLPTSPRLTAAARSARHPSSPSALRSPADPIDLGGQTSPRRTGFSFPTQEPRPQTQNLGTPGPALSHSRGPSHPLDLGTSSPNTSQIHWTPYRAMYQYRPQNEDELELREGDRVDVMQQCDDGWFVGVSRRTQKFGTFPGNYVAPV
B5: Coiled-coil alpha-helical rod protein 1 (Homo sapiens), Q8TD31 (parent)
chain: B2 chain
partner: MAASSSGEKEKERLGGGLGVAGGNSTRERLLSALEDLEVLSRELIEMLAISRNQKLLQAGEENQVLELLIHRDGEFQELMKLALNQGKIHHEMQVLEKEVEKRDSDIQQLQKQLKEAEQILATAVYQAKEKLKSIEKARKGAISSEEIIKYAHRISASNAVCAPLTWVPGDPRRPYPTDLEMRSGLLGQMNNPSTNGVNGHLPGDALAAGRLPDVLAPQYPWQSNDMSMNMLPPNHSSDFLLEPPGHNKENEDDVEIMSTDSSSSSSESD

Variants of: B1
Settings: with aspp2_human TP53BP2, Q13625

Variant | effect of a mutation on the interaction
MAAENSKQFWKRSAKLPGSIQPVYGAQHPPLDPRLTKNFIKERSKVNTVPLKNKKASSFHEFARNTSDAWDIGDDEEEDFSSPSFQTLNSKVALATAAQVLENHSKLRVKPERSQSTTSDVPANYKVIKSSSDAQLSRNSSDTCLRNPLHKQQSLPLRPIIPLVARISDQNASGAPPMTVREKTRLEKFRQLLSSQNTDLDELRKCSWPGVPREVRPITWRLLSGYLPANTERRKLTLQRKREEYFGFIEQYYDSRNEEHHQDTYRQIHIDIPRTNPLIPLFQQPLVQEIFERILFIWAIRHPASGYVQGINDLVTPFFVVFLSEYVEEDVENFDVTNLSQDMLRSIETDSFWCMSKLLDGIQDNYTFAQPGIQKKVKALEELVSRIDEQVHNHFRRYEVEYLQFAFRWMNNLLMRELPLRCTIRLWDTYQSEPEGFSHFHLYVCAAFLIKWRKEILDEEDFQGLLMLLQNLPTIHWGNEEIGLLLAEAYRLKYMFADAPNHYRR [A349T] | disrupting interaction strength

Variants of: B2
Settings: with hsbp1_human HSBP1, O75506

Variant | effect of a mutation on the interaction
W337R | disrupting interaction strength

Variants of: B3
Settings: with spf45_human RBM17, Q96I25

Variant | effect of a mutation on the interaction
W337R | disrupting interaction strength

Variants of: B4
Settings: with vinex_human SORBS3, O60504

Variant | effect of a mutation on the interaction
MAAENSKQFWKRSAKLPGSIQPVYGAQHPPLDPRLTKNFIKERSKVNTVPLKNKKASSFHEFARNTSDAWDIGDDEEEDFSSPSFQTLNSKVALATAAQVLENHSKLRVKPERSQSTTSDVPANYKVIKSSSDAQLSRNSSDTCLRNPLHKQQSLPLRPIIPLVARISDQNASGAPPMTVREKTRLEKFRQLLSSQNTDLDELRKCSWPGVPREVRPITWRLLSGYLPANTERRKLTLQRKREEYFGFIEQYYDSRNEEHHQDTYRQIHIDIPRTNPLIPLFQQPLVQEIFERILFIWAIRHPASGYVQGINDLVTPFFVVFLSEYVEEDVENFDVTNLSQDMLRSIETDSFWCMSKLLDGIQDNYTFAQPGIQKKVKALEELVSRIDEQVHNHFRRYEVEYLQFAFRWMNNLLMRELPLRCTIRLWDTYQSEPEGFSHFHLYVCAAFLIKWRKEILDEEDFQGLLMLLQNLPTIHWGNEEIGLLLAEAYRLKYMFADAPNHYRR [A349T] | disrupting interaction strength

Variants of: B5
Settings: with med4_human MED4, Q9NPJ6

Variant | effect of a mutation on the interaction
W337R | with no effect

Source: IntAct's records for PubMed 29892012
